Reference: paper PMC11245102 (bioRxiv, 2024)
Values joined by “and” are separate entries in the source; they are usually repeats but may differ in a detail not shown here. Identical values can stand only once. Blank lines part the entries; values can stand above or below the molecule they belong to.

What was measured:
[1] = molecular target: CS from a Myxococcota species (type III CS) (a Myxococcota species); assay: mass photometry
[2] = molecular target: citrate synthase from M. sulfidovorans W150A (M. sulfidovorans); assay: mass photometry
[3] = molecular target: non-mitochondrial CS (nmCS) from Ananas comosus (Ananas comosus); assay: cryo-EM structure
[4] = molecular target: non-mitochondrial CS (nmCS) from Ananas comosus (Ananas comosus); assay: mass photometry
[5] = molecular target: non-mitochondrial CS (nmCS) from Ananas comosus (Ananas comosus); assay: mass photometry; remark: listed apart in the source
[6] = molecular target: non-mitochondrial CS (nmCS) from C. fasciculata (C. fasciculata); assay: mass photometry
[7] = molecular target: non-mitochondrial CS (nmCS) from Chlamydomonas reinhardtii (Chlamydomonas reinhardtii); assay: mass photometry
[8] = molecular target: type II CS from C. woesi (C. woesi); assay: mass photometry
[9] = molecular target: type II CS from F. taffensis (F. taffensis); assay: mass photometry
[10] = molecular target: type III CS from Cyanobium sp. PCC 7001 (Cyanobium sp. PCC 7001); assay: mass photometry
[11] = molecular target: the molecule itself; assay: mass photometry

Molecule: CS from a Myxococcota species (type III CS) (enzyme)
stoichiometry N [1]: 2

Molecule: non-mitochondrial CS (nmCS) from Chlamydomonas reinhardtii (enzyme)
stoichiometry N [7]: 2

Molecule: type III CS from Cyanobium sp. PCC 7001 (enzyme)
stoichiometry N [10]: 2

B1: non-mitochondrial CS (nmCS) from P. olsenii (enzyme)
chain: MDRLNTVAAHVAPTLTITDNRSGKKIDVKVKDGTIRATDLKQLGIQTYDPGYMNTTCCVSRISFIDGNRGVLRYRGYPIEQLAQDSSFTEVAFLLQYGELPTRGQLTQWEQDLMRHSMLHQDVATLTSAFRYDAHPMGMFVSAMAALGTLHPETNPALTSQNIYKDKAVRNKEIARILGSATTLAAMAYRHRMGRPFNTPNSDLGYTENFLYMLDVSHEGTSYRPHPKLVKALDVLFVLHAEHELNCSTSAMRHLTSSNVDVYTACAAAAGALYGPRHGGANEAVLRMLERIGSIENVPTFVDKVKQRKELLMGFGHRVYKHYDPRATIVRKIAEDVFEICGREPLIEVAMDLERIALSDPYFKDRKLYPNVDFYSGLIYKAMGFPTDMFPILFTVPRLAGWLAHWSEWIDDPENRIYRPFQVYKGYDKRDYVQVDERSEKVHSKELTVKRSAFNRRRDASLQSAAADRSEYEWIKD
stoichiometry N [11]: 6

B2: CS from A. comosus Δ487–513 (domain or fragment)
chain: MEGAFDHSALARARLAVLSGHLAAVSAAGGGASPLERSPVSVQEIPPPPRNLGGSLAVIDGRSGKKFEFKISDEGTVRATDFKKITTGKNDKGLKLYDPGYLNTAPVRSSICYIDGDEGILRYRGYPIEELAESSSYPEVAYLLMYGNLPSKSQLADWEFAISQHSAVPQGVLDIIQGMPHDAHPMGVLVCAMSALSVFHPDANPALRGQDLYKSKQLRDKQIVRILGKVPTIAAAAYLRLAGRPPVLPSNNFSYSENFLYMLDSLGNRSYKPNTRLARVLDILFILHAEHEMNCSTAAARHLASSGVDVFTALAGAVGALYGPLHGGANEAVLKMLNEIGTVENIPDFIEGVKNRKRKMSGFGHRVYKNYDPRAKVIRKLAEEVFSIVGRDPLIEVAIALEKAALSDEYFIKRKLYPNVDFYSGLIYRAMGFPTEFFPVLFAIPRMAGYLAHWRESLDDPDTKIMRPQQVYTGVWLRHYTPLQER
stoichiometry N [11]: 2

Second part, the molecule after the results:

stoichiometry N [2]: 2
Molecule: citrate synthase from M. sulfidovorans W150A (enzyme)

stoichiometry N [3]: 8
stoichiometry N [4]: 8
stoichiometry N [5]: 6 and 8
Molecule: non-mitochondrial CS (nmCS) from Ananas comosus (enzyme)

stoichiometry N [6]: 6
Molecule: non-mitochondrial CS (nmCS) from C. fasciculata (enzyme)

stoichiometry N [8]: 2
Molecule: type II CS from C. woesi (enzyme)

stoichiometry N [9]: 2
Molecule: type II CS from F. taffensis (enzyme)
